The data set concerns the molecule itself. The data set can be described thus: cryo-EM structure.

B1: P116 ectodomain (residues 30-957), C-terminally shortened and HIS-tagged (domain or fragment, Mycoplasma pneumoniae, UniProt P75556 30-957, looked up)
chain: NKTHQVEHESEQSDFQDIRFGLNSVKLPKAQPAAATRITVENGTDKLVNYKSSPQQLFLAKNALKDKLQGEFDKFLSDAKAFPALTADLQEWVDQQLFNPNQSFFDLSAPRSNFTLSSDKKASLDFIFRFTNFTESVQLLKLPEGVSVVVDSKQSFDYYVNASAQKLLVLPLSLPDYTLGLNYMFDHITLNGKVVNKFSFNPFKTNLNLAFSNVYNGVDVFEAQKNLVGKGKYLNTHVKAEDVKKDVNANIKNQFDIAKIIAELMGKALKEFGNQQEGQPLSFLKVMDKVKEDFEKLFNLVRPGLGKFVKDLIQSSSQAENKITVYKLIFDNKKTILNLLKELSIPELNSSLGLVDVLFDGITDSDGLYERLQSFKDLIVPAVKTNEKTAALSPLIEELLTQKDTYVFDLIQKHKGILTNLLKNFLADFQKSTPFMADQVAIFTELFDNEGAFDLFGEADFVDKIAELFLTKRTVKNGEKIETKDSLLVTSLKSLLGEKVAALGDLLDSYIFKNELLNRSVEVAKAEAKDTKGATDYKKEQAKALKKLFKHIGENTLSKTNLDKITLKEVKNTENVELEETETTLKVKKLDVEYKVELGNFEIKNGLIKAMLEFLPDTKDLETTLDKLLFKGESYKAMKDKYIKEGFPGYGWAKGVVPGAFESIENTFKSAIDKTKSIRDLFGDMLFGNDLSSVKETDSFITLGGSFDIKYGGENLNVLPAYYSLINSEIGYQIIGVDTTIDATKVKVELKNKEYKGKSPAINGQVKLSQSFFNVWTNMFDSITKQIFQKKYEFKDNIQVFARNEDNTSRLELDISDPEQRVIPFAFVDGFGIQLKAVDKNITKEAGNTEPKSPVIQLYEALNKEKDQKQQSKQSPKQLDTKTQLGYLLKLGDNWSKDDYKSLIDDTIINNNYLEASFNSKITVDRLG
For orientation: stoichiometry N means a count of units in the complex or per binding partner. On to B1, for which the “stoichiometry N” value was 2.

B2: ΔN-P116 (residues 246-818), truncated N-terminal domain and F-loop (domain or fragment, Mycoplasma pneumoniae, UniProt P75556 246-818, looked up)
chain: GVDVFEAQKNLVGKGKYLNTHVKAEDVKKDVNANIKNQFDIAKIIAELMGKALKEFGNQQEGQPLSFLKVMDKVKEDFEKLFNLVRPGLGKFVKDLIQSSSQAENKITVYKLIFDNKKTILNLLKELSIPELNSSLGLVDVLFDGITDSDGLYERLQSFKDLIVPAVKTNEKTAALSPLIEELLTQKDTYVFDLIQKHKGILTNLLKNFLADFQKSTPFMADQVAIFTELFDNEGAFDLFGEADFVDKIAELFLTKRTVKNGEKIETKDSLLVTSLKSLLGEKVAALGDLLDSYIFKNELLNRSVEVAKAEAKDTKGATDYKKEQAKALKKLFKHIGENTLSKTNLDKITLKEVKNTENVELEETETTLKVKKLDVEYKVELGNFEIKNGLIKAMLEFLPDTKDLETTLDKLLFKGESYKAMKDKYIKEGFPGYGWAKGVVPGAFESIENTFKSAIDKTKSIRDLFGDMLFGNDLSSVKETDSFITLGGSFDIKYGGENLNVLPAYYSLINSEIGYQIIGVDTTIDATKVKVELKNKEYKGKSPAINGQVKLSQSFFNVWTNMFDSITKQIFQ
Consider B2, for which the “stoichiometry N” value was 2.
